In publication PMC11754109 (Nature, 2025):

What was measured:
[1] = molecular target: Fe protein NifH2 of Mo-nitrogenase (Azotobacter vinelandii); assay: SEC-MALS
SEC-MALS = molecular target: the molecule itself; assay: SEC-MALS

Molecule	stoichiometry N (chains per oligomer) [1]	stoichiometry N (NifH2 dimers per FeSII2 dimer) [1]	stoichiometry N (SEC-MALS) [chains per oligomer]
Fe protein NifH2 of Mo-nitrogenase (natural protein)	2	–	–
FeSII protein (Shethna protein II) of Azotobacter vinelandii (natural protein) MATIYFSSPLMPHNKKVQAVAGKRSTLLGVAQENGVKIPFECQDGNCGSCLVKITHLDGERIKGMLLTDKERNVLKSVGKLPKSEEERAAVRDLPPTYRLACQTIVTDEDLLVEFTGEPGGA	–	1	2
